Data taken from US20240352105A1, “COMPOSITIONS AND METHODS FOR NEUTRALIZING ANTIGENS” (PACAGEN, INC, priority 2023, published 2024).

B1: SDAB22111-1-E10 (VHH)
VHH: QLQLVESGGGMVQPGGSLRLSCAASGTLFSTALMGWYRQAPGKQRTLVASITDGGSTNYVDSVKGRFTISRDNEKNTVYLQMNSLKFEDTAVYYCNAHWGSYDYWGQGTQVVVSS
notes: anti-Der p2 alpaca VHH; prokaryotic expression
B2: SDAB22111-1-D6 (VHH)
VHH: DVQLVESGGGLVQPGGSLRLSCVASGLTFSYYDMKWHRQAPGKERELVAAIIEGGRTMYADSVKGRFTISRDSPKKSVYLQMNNLKSEDTAVYYCNAVRARFRGLGNDDAWGQGTQVTVSS
notes: as for B1
B3: SDAB22111-1-B1 (VHH)
VHH: DVQLVESGGGLVQPGGSLRLSCAASGFTFALYSMRWYRQAPGKERELVAAITSGRSTNYADSVKGRFTISRDNAKNTVYLQMNSLKPEDTAVYHCNARHPIATLGNYWGQGTPVTVSS
notes: as for B1
B4: SDAB22111-1-F9 (VHH)
VHH: QVQLVESGGGLVQPGGSLRLSCAASGRIFRPDGMAWYRQAPGKQREFVAGITRGGRTTYADSVKGRFTISRDNAENTVYLQMNSLKPEDTAVYYCNAKPSAWTLPRYRYDYWGQGTQVTVSS
notes: as for B1
B5: SDAB22111-1-H12 (VHH)
VHH: QVQLVESGGGLVQPGGSLRLSCAASRSIDRFPAMGWYRQAPGKKRELVAAISSANTRTKYADSVKGRFTISRDNAENTMYLQMNSLKPEDTAVYYCNVFPRPVQGYWGQGTQVTVSS
notes: as for B1
B6: SDAB22111-1-D3 (VHH)
VHH: QLQLVESGGGLVQPGGSLRLSCVVSGRTLSGHNMGWFRQAPGKEREFVARINSNGGTTRYADAVKGRFTISRDNAKNTAYLQMNSLKSEDTAVYYCRLVGPAGYWGQGTQVTVSS
notes: as for B1
B7: SDAB22111-1-F9-B03 (VHH)
VHH: EVQLVESGGGLVQPGGSLRLSCAASGRTFSSYAMGWFRQAPGKEREFVAGISRRGSNIYYADSVKGRFTISRDNAKNTVYLQMNSLKPEDTAVYYCNARHPRISTRLYWGQGTQVTVSS
notes: as for B1
B8: SDAB22111-1-C1 (VHH)
VHH: QVQLVESGGGLVQPGGSLRLSCAASASFVGAYAMYWFRQATGKQRELVAFITSGNSTNYADSVKGRFTISRDYTKNTVYLQMNKLKPEDTAVYSCNLVTSRGDYWGQGTQVTVSS
notes: as for B1
B9: SDAB22112-1-C9 (VHH)
VHH: QLQLVESGGGLVQPGGSLRLSCVGSGFTFSLASMGWYRQAPGKEREWVASISSLDASTNYADSVKGRFTISRDNAKRMVYLQMNNLKSEDTAVYYCKAMNYWGKGTQVTVSS
notes: anti-Can f1 alpaca VHH
B10: SDAB22112-1-B6-B05 (VHH)
VHH: QLQLVESGGGLVQPGGSLRLSCAASRSIFSSYVMAWYRRAPGKKRELVASIANVGSNTDYASFAKGRFTISRDDDKSRDNDKITVYLQMNSLNPEDTAVYYCNAWLGAGSDYWGQGTQVTVSS
notes: anti-Can f1 alpaca VHH
B11: SDAB22112-1-C10 (VHH)
VHH: QLQLVESGGGLVQPGGSLRLSCAASGFTFSSYSMSWYRQAPGKERELVATIDTDGRTNYADSVKGRFTISRDNAKNSVYLQMNSLKPEDTAVYYCNRRQLGVDYWGQGTQVTVSS
notes: anti-Can f1 alpaca VHH
B12: SDAB22112-2-D08 (VHH)
VHH: QVKLEESGGGLVQAGGSLRLSCVASGRTFSRWHTGWYRQAPGREREFVATLRASGGDTYYADSVKGRFTISRDNAKNTVYLQMNSLKPEDTAVYYCNVWANWGAPPSDFSSWGQGTQVTVSS
notes: anti-Can f1 alpaca VHH
B13: SDAB22112-1-D12-3 (VHH)
VHH: QVQLVESGGGLVQPGGSLRLSCAASGFTFSNYGMSWVRQAPGKGLEWVSDVNSSGSRRFYVDSVKGRFTISRDNAKNTVFLQMNSLKPEDSAVYYCVKLAEAGTLIHVGSWGQGTRVTVSS
notes: anti-Can f1 alpaca VHH
B14: SDAB22129-55-35-46-49-1-B12 (VHH)
VHH: QVQLVESGGGLVQAGGPLRLSCAASGRTFSSYAMGWFRQAPGKEREFVAAISWSGDSTYYADSVKGRFTLSRDNAKNTVYLQMNSLKPEDTAVYYCAVPSSGRGTYYYTLSAYEYWGQGTQVTVFS
notes: Expressed from a prokaryotic vector
B15: SDAB22129-55-35-46-49-1-D01 (VHH)
VHH: QVQLVESGGGLVQAGGSLRLSCAASGRTFSRYAMGWFRQAPGKEREFVAAITGSGSRTYYADSIQGRFTISRDNAKNTVYLQMNSLKPEDTAVYYCVQGWAEATMTSLGEDYDYWGQGTQVTVSS
notes: as for B14
B16: SDAB22129-55-35-46-49-1-H08 (VHH)
VHH: EVQLVESGGGLVQAGGSLTLSCGRTTSIWGMGWFRQGRGKEREFVAAITPSGSITFYSDHVKGRFTVSRDNALNTVYLQMNSLKPEDTAVYYCARRGSSGSYYWAGSYEAWGQGTQVTVSS
notes: as for B14
B17: SDAB22129-55-35-46-49-1-C12 (VHH)
VHH: QVQLVESGGGLVQAGGSLRLSCAASGRTFSSYAMGWFRQAPGKEREFVAIISNTGGLTDYAHSVKGRFTISRDNAKNTGYLQMNSLKPEDTALYYCAADFLGPKSWPSYWGQGTQVTVSS
notes: as for B14
B18: SDAB22129-55-35-46-49-1-G02 (VHH)
VHH: QLQLVESGGGLVQAGGSLRLSCTASGRTFRNFGMGWFRQAPGKERKLVASISYVGGNTDYADSVKGRFTISMDNAKNTVVLQMNSLKPEDTAMYYCAARNPNRNEYPWWGQGTQVTVSS
notes: as for B14
B19: SDAB22129-55-35-46-49-1-G07 (VHH)
VHH: QVQLVESGGGLVQAGGSLRLSCAASGRTFSSYAMGWFRQAPGKERELVATISWSGGSTYYADSVKGRFTISRDNAKNTGFLQMNSLKPEDTAVYYCAADFASTVGTPLTRPAYWGQGTQVTVSS
notes: as for B14
B20: SDAB22129-55-35-46-49-1-B02 (VHH)
VHH: QLQLVESGGGLVQSGGSLRLSCVAKGGTNHPYPIGWFRQAPGKEQEGVLCIASGGQTQDSAHNPNWADSVKGRFTISRDDATHTVYLEMNNLKADDTAVYFCAAPREIYIDSRCATYKYEYWGQGTQVTVSP
notes: as for B14

Molecular target: T1, recombinant His-tagged Der p2 (dust mite, UniProt P49278 18-146)
T1 construct: also called Der p2-His; Der p2-HIS; not shown: His tag
T1 sequence (looked up): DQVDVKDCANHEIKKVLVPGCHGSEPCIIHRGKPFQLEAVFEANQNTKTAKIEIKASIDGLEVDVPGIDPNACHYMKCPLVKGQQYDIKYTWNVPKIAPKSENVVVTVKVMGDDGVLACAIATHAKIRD
Test: ELISA, antigen coated
Conditions: not given
Protocol: (§1) 2 microgram per milliliter (μg/mL) target antigen is coated in a 96-well plate and ELISA assay is performed after incubation with candidate VHHs. The binding EC50 of each clone is calculated using Prism GraphPad. The positive control antibody is involved as an internal control.
(§2) Isolated VHH clones were further validated by performing an ELISA assay as described in Example 1. Metrics of thermostability including melting temperature (Tₘ), onset temperature (Tₒₙₛₑₜ), and temperature of aggregation (Tagg), were also tested with increasing temperature in the range of 20° C.-95° C. at the speed of 1° C./min. These measurements were performed using a Nanotemper DSF. When applicable, Tₘ1 refers to the first melting point observed, Tₘ2 refers to the second melting point observed, etc., Sequence information for the VHH clones and the binding assay results are summarized in Table 3. The individual binding curves are shown for each candidate in FIGS. 3B-3I.

Molecule | EC50 [µg/mL]
B1 | 6.57
B2 | 9.66
B3 | 8.23
B4 | 4.95
B5 | 2.67
B6 | 8.41
B7 | 15.9
B8 | 1.11

Molecular target: T2, recombinant His-tagged Can f1 (dog (Canis familiaris), UniProt O18873 19-174)
T2 construct: also called Can f1-His; recombinant Can f1; not shown: His tag
Test: ELISA, antigen coated
Conditions: not given
Protocol: as §1
(§3) Isolated VHH clones were further validated by performing an ELISA assay as described in Example 1. Metrics of thermostability including melting temperature (Tₘ), onset temperature (Tₒₙₛₑₜ), and temperature of aggregation (Tagg), were also tested with increasing temperature in the range of 20° C.-95° C. at the speed of 1° C./min. The individual binding curves are shown for each candidate in FIGS. 5B-5H.

T2 sequence (O18873 19-174 limits assumed): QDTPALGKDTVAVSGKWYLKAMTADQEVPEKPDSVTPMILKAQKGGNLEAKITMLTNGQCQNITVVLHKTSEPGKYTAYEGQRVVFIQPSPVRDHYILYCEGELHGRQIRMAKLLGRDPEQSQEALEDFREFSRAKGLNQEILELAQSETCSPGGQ

Molecule | EC50 [µg/mL]
B9 | 13.1
B10 | 8.42
B11 | 9.4
B12 | 5.84
B13 | 10.4

Molecular target: T3, recombinant His-tagged Der p1 (dust mite, UniProt P08176 99-320, limits assumed)
T3 sequence (looked up): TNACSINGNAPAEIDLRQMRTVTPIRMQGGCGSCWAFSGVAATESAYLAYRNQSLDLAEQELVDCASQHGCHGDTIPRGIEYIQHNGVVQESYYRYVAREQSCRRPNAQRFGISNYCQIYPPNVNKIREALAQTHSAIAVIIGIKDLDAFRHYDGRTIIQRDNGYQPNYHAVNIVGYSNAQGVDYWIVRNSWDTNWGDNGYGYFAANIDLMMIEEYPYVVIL
Test: cell-based or functional assay
Conditions: not given

Molecule | Maximum Rate of Blocking
B14 | 95.4
B15 | 73
B16 | 92.8
B17 | 91.6
B18 | 85.2
B19 | 93.3
B20 | 75.4

System: not listed separately
Test: Thermostability (Tm, Tonset, Tagg) by Nanotemper DSF
Assay type: physicochemical
Parameters: key to Tm2 / Tagg / Tm1 / Tm / Tm3 / Tonset / Tonset ø (mean) / Tagg ø (mean): temperatures in °C
Conditions: anti-Der p2 VHH; 20° C.-95° C. at 1° C./min
Protocol: as §2, with “(Tm),” for “(Tₘ),”, “(Tonset),” for “(Tₒₙₛₑₜ),”, “Tm1” for “Tₘ1”, “Tm2” for “Tₘ2”
as §3, with “(Tm),” for “(Tₘ),”, “(Tonset),” for “(Tₒₙₛₑₜ),”
as §3, with “(Tm),” for “(Tₘ),”, “(Tonset),” for “(Tₒₙₛₑₜ),”, “7B-7P.” for “5B-5H.”
The detailed thermostability graphs used to determine the Tm, Tonset, and Tagg are illustrated in FIGS. 19A-19I and raw data is summarized in Table 23. Any subsequent melting points observed (Tm1, Tm2, Tm3, etc.) are separated by commas.

Molecule | Tagg
B2 | 41.57
B5 | 43.37
B6 | 42.45
B7 | 40.04
B8 | 43.53

Same assay, conditions: anti-Der p2 VHH; first melting point observed; in °C (unit assumed)

Molecule | Tm1
B2 | 49.02
B5 | 51.93
B6 | 53.78
B8 | 54.52

Same assay, conditions: anti-Der p2 VHH; second melting point observed; in °C (unit assumed)

Molecule | Tm2
B2 | 62.55
B5 | 59.13
B6 | 69.76
B8 | 66.51

Same assay, conditions: anti-Der p2 VHH; single melting point; in °C (unit assumed)

Molecule | Tm
B7 | 71.38

Same assay, conditions: anti-Der p2 VHH; third melting point; in °C (unit assumed)

Molecule | Tm3
B5 | 68.62

Molecular target: T3, recombinant His-tagged Der p1
Test: ELISA, antigen coated on plate
Conditions: not given
Protocol: as §1
Isolated VHH clones were further validated by performing an ELISA assay as described in Example 1. The individual binding curves are shown for each candidate in FIGS. 9A-9K.

Molecule | EC50 [µg/mL]
B14 | 1.77
B15 | 0.0147
B16 | 16.5
B17 | 4.95
B18 | 4.21
B19 | 0.485
B20 | 0.0193
